Results published in patent JP2016161390A (dated 2016).
One block for each binder: values may come before it.

Key:
ヒトFRα(FRα発現KB細胞) = target: T1, ヒトFRα(FRα発現KB細胞) (human, UniProt P15328 25-234); experiment: Hybridoma screening on cells expressing FRβ and on KB cells expressing FRα
T1 construct: whole, on cells

ヒトFRβ(FRβ発現B300−19細胞) [1] = target: T2, ヒトFRβ(FRβ発現B300−19細胞) (human, UniProt P14207 17-230); experiment: Flow cytometry on B300-19 cells expressing FRβ, antibody at 1 μg/ml, APC anti-rat detection
T2 construct: whole, on cells; also called 葉酸リセプターβ
T2 sequence (P14207 17-230): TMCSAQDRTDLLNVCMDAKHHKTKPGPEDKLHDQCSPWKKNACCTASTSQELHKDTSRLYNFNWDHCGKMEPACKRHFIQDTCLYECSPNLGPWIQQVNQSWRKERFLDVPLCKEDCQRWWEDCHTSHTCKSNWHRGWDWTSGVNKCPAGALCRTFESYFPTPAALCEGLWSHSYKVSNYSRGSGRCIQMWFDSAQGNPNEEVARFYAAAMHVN

ヒトFRβ(FRβ発現B300−19細胞) [2] = target: T2, ヒトFRβ(FRβ発現B300−19細胞); experiment: Flow cytometry on B300-19 cells expressing FRβ, in the presence of F(ab')2 No.5, APC-streptavidin detection

T1 sequence (P15328 25-234): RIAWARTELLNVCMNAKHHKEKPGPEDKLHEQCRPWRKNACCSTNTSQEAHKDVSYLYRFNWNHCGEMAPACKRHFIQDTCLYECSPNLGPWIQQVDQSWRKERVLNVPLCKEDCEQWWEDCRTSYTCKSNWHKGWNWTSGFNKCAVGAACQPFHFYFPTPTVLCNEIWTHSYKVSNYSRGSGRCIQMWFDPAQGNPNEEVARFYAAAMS

- binding result (ヒトFRα(FRα発現KB細胞)): binds
- binding result (ヒトFRβ(FRβ発現B300−19細胞) [1]): binds
B1: 抗ヒトFRラットモノクローナル抗体(クローン名:No.5) (antibody, V domains shown)
VH: QVQLKESGPGLVQPSQTLSLTCTVSGFSLTSNSVSWVRQPPGKGLEWMGAIWSGGSTDYNSALKSRLSISKDTSKSQVFLKMNSLQTEDTAIYFCTRYYGYTYFAYWGQGVMVTVSS
VL: DIQMTQSPASLSASLEEIVTITCQASQDIGNWLAWYQQKPGKSPQLLIYDAIRLADGVPSRFSGSRSGTQYSLKISRLQVEDIGDYYCQQGQSNPRTFGGGTKLELK
notes: Rat monoclonal antibody purified from hybridoma supernatant; the constant regions are not; also called 抗体No.5

- binding result (ヒトFRβ(FRβ発現B300−19細胞) [2]): binds
B2: ビオチン化No.2抗体 (antibody, V domains shown)
VH: QVQLQQSGAELAKPGSSVKISCKASGYTFTTYYINWIKQTTGQGLDYIGYINTRSGGTNYNEKFKGKATLTVDKSSSTAFMQLSSLTPDDSAVYYCAREGIIRGAEVMDAWGQGASVTVSS
VL: DIQMTQTPSSMPASLGERVTISCRASQGISNYLNRYQQKPDGTIKLLIYYTSNLQSGVPSRFSGSGSGTDYSLTISSLEPEDFAMYYCQQYDSSPPTFGGGTKLELK
modifications: biotinylated with Sulfo-NHS-LC-Biotin; sites not stated
notes: also called 検出抗体; ビオチン化抗FRβ抗体

- binding result (ヒトFRβ(FRβ発現B300−19細胞) [1]): binds
B3: 抗ヒトFRβラットモノクローナル抗体(クローン名:No.2) (antibody, V domains shown)
VH: B2 VH
VL: B2 VL
notes: Rat monoclonal antibody purified from hybridoma supernatant; the constant regions are not; also called 抗体No.2
